Source: patent US20250074942A1, “COMPOSITIONS AND METHODS FOR COVALENT PEPTIDE-BASED MODULATORS OF HLA-E” (Calico Life Sciences LLC, priority 2022, published 2025)
Where no end group is shown, it is not given here. The star is where a group is joined. FITC = O=C1OC2(c3ccc(O)cc3Oc3cc(O)ccc32)c2ccc(NC(=S)*)cc21; mSF = 3-benzenesulfonyl fluoride, O=S(=O)(F)c1cccc(*)c1

target: T1, HLA-E (Homo sapiens, UniProt P13747); assay: Binding to HLA-E by Fluorescence Polarization (FP); settings: Table 18
T1 construct: [HLAE(hu)(22-305)]-Avitag]; made in house
Protocol: This example describes the analysis of binding of modified VL9 based peptides to HLA-E by Fluorescence Polarization (FP).
Briefly, proteins and VL9 or Qdm derived peptides were produced as described in EXAMPLE 2 and EXAMPLE 3 and binding to HLA-E was measured with Fluorescence Polarization.

Substance | FP result
ALCAPRLCL (cysteine pairing not given here) [Peptide P21] | Binding
AMCGALCLF (cysteine pairing not given here) [Peptide P32] | Binding
Ala-Leu-Cys-Ala-Pro-Arg-Leu-Cys-Leu-Gly-Gly-Lys(FITC) (ALCAPRLCLGGK(FITC); cysteine pairing not given here) [P21(FITC)] | Binding
Ala-Leu-Cys-Arg-Trp-Arg-Cys-Leu-Tyr-Gly-Gly-Lys(FITC) (ALCRWRCLYGGK(FITC); cysteine pairing not given here) [P28(FITC)] | Binding
Ala-Leu-Cys-Trp-Arg-Val-Pro-Cys-Thr (ALCWRVPCT-NH2; cysteine pairing not given here) [Peptide P20] | Binding
Ala-Leu-Cys-Trp-Arg-Val-Pro-Cys-Thr-Gly-Gly-Lys(FITC) (H-ALCWRVPCTGGK(FITC)-NH2; cysteine pairing not given here) [P20(FITC)] | Binding
Ala-Leu-Cys-Trp-His-Val-Pro-Cys-Gln-Gly-Gly-Lys(FITC) (ALCWHVPCQGGK(FITC); cysteine pairing not given here) [P23(FITC)] | Binding
Ala-Met-Cys-Gly-Ala-Leu-Cys-Leu-Phe-Gly-Gly-Lys(FITC) (AMCGALCLFGGK(FITC); cysteine pairing not given here) [P32(FITC)] | Binding
Ala-Met-Cys-Gly-Pro-Arg-Cys-Leu-Trp-Gly-Gly-Lys(FITC) (AMCGPRCLWGGK(FITC); cysteine pairing not given here) [P1(FITC)] | Binding
Val-Met-Ala-Pro-Lys(FITC)-Thr-Leu-Phe-Leu (VMAPK(FITC)TLFL) [VL9—5Lys(FITC)] | Exchange

target: T2, CD94/NKG2A binding to HLA-E (Homo sapiens, UniProt P13747); assay: Biolayer interferometry (BLI): inhibition of CD94/NKG2A binding to peptide-loaded HLA-E; settings: BLI after a 2 h incubation of [HLA-E+VL9] with the electrophilic peptide
T2 construct: [HLAE(hu)(22-305)]-Avitag]; made in house
Protocol: Proteins were produced as described in EXAMPLE 2 and peptides were synthesized as described in EXAMPLE 3.
BLI was performed on a ForteBio Octet Red96e instrument. All proteins were diluted in 1× Kinetic Buffer (10× Kinetic buffer, Sartorius 181105) diluted in 1×PBS. A Blocking Buffer step was introduced to lower non-specific binding to the streptavidin (SA) tips by diluting 5% bovine serum albumin (BSA) and 20 μg/mL Biocytin (Sigma B4261) in 1× Kinetic Buffer. Refolded and biotinylated [HLA-E+VL9] complexes were loaded onto SA biosensors (Forte 18-5019) at ˜5 μg/ml (100 nM) with the following steps: 60 sec baseline in 1× Kinetic Buffer, 180 sec loading, 60 sec blocking in Blocking Buffer and 60 sec baseline in 1× Kinetic Buffer, all at 25° C. and 1000 rpm. hSCD and oaFC-hSCD binding to immobilized HLA-E/B2M complexes was monitored at 200 nM by a 90 sec association step, followed by a 120 sec dissociation step. Data correction was performed as follows: first, aligning the data to the average of the last baseline step on the y-axis; second, by aligning the data to the dissociation step for inter-step correction; and third by filtering the data using Savitzky-Golay Filtering.
This example describes the analysis of inhibition of CD94-NKG2A binding to HLA-E by exemplary modified peptides by bio-layer interferometry (BLI).
Briefly, proteins and VL9 or Qdm derived peptides were produced as described in EXAMPLE 2 and EXAMPLE 3. BLI measurements to determine inhibition were performed as described in EXAMPLE 4.

Substance | able to reduce the binding of CD94-NKG2A to HLA-E (in words)
NH2-Val-Met-Ala-Pro-Arg-Thr-Leu-Cys(mSF)-Leu-OH (H-VMAPRTLC(mSF)L-OH; SMILES CSCC[C@H](NC(=O)[C@@H](N)C(C)C)C(=O)N[C@@H](C)C(=O)N1CCC[C@H]1C(=O)N[C@@H](CCCNC(=N)N)C(=O)N[C@H](C(=O)N[C@@H](CC(C)C)C(=O)N[C@@H](CSc1cccc(S(=O)(=O)F)c1)C(=O)N[C@@H](CC(C)C)C(=O)O)[C@@H](C)O) [VL9—8Cys(mSF)] | not

same assay, conditions: BLI, CD94-NKG2A 200 nM

inhibition of CD94/NKG2A binding (in words) | Substance
no inhibition of binding | NH2-Cha-hAr-Ala-Leu-hAr-Gln-Met-Mff-hAr-OH [Peptide B5.scrambled]

same assay, conditions: Table 13; inhibition of CD94-NKG2A binding to HLA-E; BLOD = below the limit of detection

BLI result | Substance
inhibition | hAr-Nle-hAr-Gln-Lys(CUM)-Ala-Cha-hAr-Leu [B9_5Lys(CUM)]
inhibition | hAr-Nle-hAr-Gln-Lys(DOTA)-Ala-Cha-hAr-Leu [B9_5Lys(DOTA)]
inhibition | hAr-Nle-hAr-Gln-Lys(FITC)-Ala-Cha-hAr-Leu [B9_5Lys(FITC)]
inhibition | hAr-Nle-hAr-Gln-Lys(ibu)-Ala-Cha-hAr-Leu [B9_5Lys(ibu)]
inhibition | hAr-Nle-hAr-Gln-Mff-Ala-Cha-Lys(ibu)-Leu [B9_8Lys(ibu)]
inhibition | hAr-Nle-hAr-Gln-Mff-Ala-Cha-hAr-Leu-Leu-Pro-Glu-Thr-Gly-Gly [Peptide B9_LPETGG]

Substance | BLI result
Lys(TAMRA)-Nle-hAr-Gln-Mff-Ala-Cha-hAr-Leu [B9_1Lys(TAMRA)] | inhibition
NH2-Val-Met-Ala-Pro-Arg-Thr-Leu-Cys(mSF)-Leu-OH (H-VMAPRTLC(mSF)L-OH; SMILES CSCC[C@H](NC(=O)[C@@H](N)C(C)C)C(=O)N[C@@H](C)C(=O)N1CCC[C@H]1C(=O)N[C@@H](CCCNC(=N)N)C(=O)N[C@H](C(=O)N[C@@H](CC(C)C)C(=O)N[C@@H](CSc1cccc(S(=O)(=O)F)c1)C(=O)N[C@@H](CC(C)C)C(=O)O)[C@@H](C)O) [VL9—8Cys(mSF)] | inhibition
hAr-Nle-hAr-Gln-Lys(TAMRA)-Ala-Cha-hAr-Leu [B9_5Lys(TAMRA)] | inhibition
hAr-Nle-hAr-Gln-Mff-Ala-Cha-Lys(TAMRA)-Leu [B9_8Lys(TAMRA)] | inhibition

same assay, conditions: Table 15, peptides with additional amino acids at the N-terminus; BLOD = below the limit of detection

BLI result | Substance
inhibition | Gly-hAr-Nle-hAr-Gln-Mff-Ala-Cha-hAr-Leu [Peptide G1_B9]

target: T1, HLA-E; assay: Cross-linking of electrophilic peptides with [HLA-E+VL9], covalently bound HLA-E by LC-MS; format: binding; settings: peptide in 10-fold excess with [HLA-E+VL9], 4 h at 37° C.
Protocol: The Cys peptide variants were equipped with a mSF warhead in a Pd-mediated coupling using Pd oxidative addition complex 1 (FIGS. 6A and 6B) X* indicating position functionalized with the electrophilic warhead). Electrophilic analogs of VL9 were subjected to cross-linking reactions in a 10-fold excess with [HLA-E+VL9] for 4 h at 37° C., and the amount of covalently bound HLA-E was determined by LC-MS as described in EXAMPLE 4.
Briefly, crosslinking reactions were performed as described in EXAMPLE 5.

Substance | cross-linking with HLA-E (in words) | amount of covalently bound (cross-linked) HLA-E [%]
NH2-Cys(mSF)-Met-Ala-Pro-Arg-Thr-Leu-Phe-Leu-OH (H-C(mSF)MAPRTLFL-OH; SMILES CSCC[C@H](NC(=O)[C@@H](N)CSc1cccc(S(=O)(=O)F)c1)C(=O)N[C@@H](C)C(=O)N1CCC[C@H]1C(=O)N[C@@H](CCCNC(=N)N)C(=O)N[C@H](C(=O)N[C@@H](CC(C)C)C(=O)N[C@@H](Cc1ccccc1)C(=O)N[C@@H](CC(C)C)C(=O)O)[C@@H](C)O) [VL9—1Cys(mSF)] | no or only trace amounts of cross-linking | 
NH2-Val-Cys(mSF)-Ala-Pro-Arg-Thr-Leu-Phe-Leu-OH (H-VC(mSF)APRTLFL-OH; SMILES CC(C)C[C@H](NC(=O)[C@H](Cc1ccccc1)NC(=O)[C@H](CC(C)C)NC(=O)[C@@H](NC(=O)[C@H](CCCNC(=N)N)NC(=O)[C@@H]1CCCN1C(=O)[C@H](C)NC(=O)[C@H](CSc1cccc(S(=O)(=O)F)c1)NC(=O)[C@@H](N)C(C)C)[C@@H](C)O)C(=O)O) [VL9—2Cys(mSF)] | no or only trace amounts of cross-linking | 
NH2-Val-Met-Ala-Cys(mSF)-Arg-Thr-Leu-Phe-Leu-OH (H-VMAC(mSF)RTLFL-OH; SMILES CSCC[C@H](NC(=O)[C@@H](N)C(C)C)C(=O)N[C@@H](C)C(=O)N[C@@H](CSc1cccc(S(=O)(=O)F)c1)C(=O)N[C@@H](CCCNC(=N)N)C(=O)N[C@H](C(=O)N[C@@H](CC(C)C)C(=O)N[C@@H](Cc1ccccc1)C(=O)N[C@@H](CC(C)C)C(=O)O)[C@@H](C)O) [VL9—4Cys(mSF)] |  | 36
NH2-Val-Met-Ala-Pro-Arg-Cys(mSF)-Leu-Phe-Leu-OH (H-VMAPRC(mSF)LFL-OH; SMILES CSCC[C@H](NC(=O)[C@@H](N)C(C)C)C(=O)N[C@@H](C)C(=O)N1CCC[C@H]1C(=O)N[C@@H](CCCNC(=N)N)C(=O)N[C@@H](CSc1cccc(S(=O)(=O)F)c1)C(=O)N[C@@H](CC(C)C)C(=O)N[C@@H](Cc1ccccc1)C(=O)N[C@@H](CC(C)C)C(=O)O) [VL9—6Cys(mSF)] | no or only trace amounts of cross-linking | 
NH2-Val-Met-Ala-Pro-Arg-Thr-Cys(mSF)-Phe-Leu-OH (H-VMAPRTC(mSF)FL-OH; SMILES CSCC[C@H](NC(=O)[C@@H](N)C(C)C)C(=O)N[C@@H](C)C(=O)N1CCC[C@H]1C(=O)N[C@@H](CCCNC(=N)N)C(=O)N[C@H](C(=O)N[C@@H](CSc1cccc(S(=O)(=O)F)c1)C(=O)N[C@@H](Cc1ccccc1)C(=O)N[C@@H](CC(C)C)C(=O)O)[C@@H](C)O) [VL9—7Cys(mSF)] |  | 22
NH2-Val-Met-Ala-Pro-Arg-Thr-Leu-Cys(mSF)-Leu-OH (H-VMAPRTLC(mSF)L-OH; SMILES CSCC[C@H](NC(=O)[C@@H](N)C(C)C)C(=O)N[C@@H](C)C(=O)N1CCC[C@H]1C(=O)N[C@@H](CCCNC(=N)N)C(=O)N[C@H](C(=O)N[C@@H](CC(C)C)C(=O)N[C@@H](CSc1cccc(S(=O)(=O)F)c1)C(=O)N[C@@H](CC(C)C)C(=O)O)[C@@H](C)O) [VL9—8Cys(mSF)] |  | 87
NH2-Val-Met-Ala-Pro-Arg-Thr-Leu-Phe-Cys(mSF)-OH (H-VMAPRTLFC(mSF)-OH; SMILES CSCC[C@H](NC(=O)[C@@H](N)C(C)C)C(=O)N[C@@H](C)C(=O)N1CCC[C@H]1C(=O)N[C@@H](CCCNC(=N)N)C(=O)N[C@H](C(=O)N[C@@H](CC(C)C)C(=O)N[C@@H](Cc1ccccc1)C(=O)N[C@@H](CSc1cccc(S(=O)(=O)F)c1)C(=O)O)[C@@H](C)O) [VL9—9Cys(mSF)] | no or only trace amounts of cross-linking | 
NH2-Val-Met-Ala-Pro-Cys(mSF)-Thr-Leu-Phe-Leu-OH (H-VMAPC(mSF)TLFL-OH; SMILES CSCC[C@H](NC(=O)[C@@H](N)C(C)C)C(=O)N[C@@H](C)C(=O)N1CCC[C@H]1C(=O)N[C@@H](CSc1cccc(S(=O)(=O)F)c1)C(=O)N[C@H](C(=O)N[C@@H](CC(C)C)C(=O)N[C@@H](Cc1ccccc1)C(=O)N[C@@H](CC(C)C)C(=O)O)[C@@H](C)O) [VL9—5Cys(mSF)] | no or only trace amounts of cross-linking | 
NH2-Val-Met-Cys(mSF)-Pro-Arg-Thr-Leu-Phe-Leu-OH (H-VMC(mSF)PRTLFL-OH; SMILES CSCC[C@H](NC(=O)[C@@H](N)C(C)C)C(=O)N[C@@H](CSc1cccc(S(=O)(=O)F)c1)C(=O)N1CCC[C@H]1C(=O)N[C@@H](CCCNC(=N)N)C(=O)N[C@H](C(=O)N[C@@H](CC(C)C)C(=O)N[C@@H](Cc1ccccc1)C(=O)N[C@@H](CC(C)C)C(=O)O)[C@@H](C)O) [VL9—3Cys(mSF)] |  | 73
